{"source": "patent US9957320", "about": "(dated 2018)", "binders": {"B1": {"name": "Ab652 Fab (antibody, V domains shown)", "VH": "QVTLKESGPVLVKPTETLTLTCTVSGFSLSNARMGVSWIRQPPGKALEWLAHIFSNDEKSYSTSLKSRLTISKDTSKSQVVLTMTNMDPVDTATYYCARIYFDYWGQGTLVTVS", "VL": "DIQMTQSPSSLSASVGDRVTITCLASEDISNYLAWYQQKPGKAPKLLIYHTSRLQDGVPSRFSGSGSGTDFTLTISSLQPEDFATYYCQQGYRFPLTFGGGTKVEIK"}}, "key": {"[1]": {"biological_target": "T1, human IL-13 (human, UniProt P35225)", "T1 sequence (P35225 25-146)": "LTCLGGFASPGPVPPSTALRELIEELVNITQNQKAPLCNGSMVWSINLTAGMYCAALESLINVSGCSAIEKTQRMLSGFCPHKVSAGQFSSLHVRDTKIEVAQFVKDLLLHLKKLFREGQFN", "assay": "SPR, average"}, "[2]": {"biological_target": "T1, human IL-13", "assay": "SPR, 25C, average of 3 determinations"}}}
{"binder": "B1", "values": [{"measurement": "Kd", "setting": "[1]", "value": 0.0134, "unit": "nM"}, {"measurement": "Kd", "setting": "[2]", "value": 0.015, "unit": "nM"}]}
